Data reported in patent publication US20060140946A1 (published 2006).

B1: p55-sf2 TNF receptor/IgG1 fusion protein (Fc fusion)
chain: QVCPQGKYIHPQNNSICCTKCHKGTYLYNDCPGPGQDTDCRECESGSFTASENHLRHCLSCSKCRKEMGQVEISSCTVDRDTVCGCRKNQYRHYWSENLFQCFNCSLCLNGTVHLSCQEKQNTVCTCHAGFFLRENECVSCSNCKKSLECTKLCLPQIPGTLVTVSS
B2: p75P-sf2 TNF receptor/IgG1 fusion protein (Fc fusion)
chain: QLPAQVAFTPYAPEPGSTCRLREYYDQTAQMCCSKCSPGQHAKVFCTKTSDTVCDSCEDSTYTQLWNWVPECLSCGSRCSSDQVETQACTREQNRICTCRPGWYCALSKQEGCRLCAPLRKCRPGFGVARPGTETSDVVCKPCAPGTFSNTTSSTDICRPHQICNVVAIPGNASMDAVCTSTSGTLVTVSS

Molecular target: human tumor necrosis factor-alpha (hTNFα) (human, UniProt P01375 77-233)
Sequence (P01375 77-233): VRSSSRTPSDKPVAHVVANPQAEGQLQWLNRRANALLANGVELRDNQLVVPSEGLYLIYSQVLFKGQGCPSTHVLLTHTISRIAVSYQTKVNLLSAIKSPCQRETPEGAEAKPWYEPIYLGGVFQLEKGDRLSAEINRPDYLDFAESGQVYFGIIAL
Assay: cell-based or functional assay

Row | Binder | IC50: concentration of fusion protein required to inhibit 2 ng/ml (39.2 pM) TNFα by 50%, WEHI 164 cytotoxicity assay
1 | B1 | 70 pM
2 | B2 | 70 pM
